The subject of the data set is Tus-LPETGG-His6 (sortase-immobilized on glycine-modified GMA beads) (Escherichia coli). Description: bead-based fluorescence binding (FACS). To be noted: 50 mM Tris-HCl, 250 mM KCl, 0.1 mM EDTA, 0.1 mM DTT, pH 9; temperature of binding not stated.

One may read the Kd as the concentration at which binding is half-saturated. Consider TerB, for which the Kd came out at 29 nM. This lies in the double-digit nanomolar range.

(Values after article PMC2063460.)
